These results are taken from publication PMC8892516, “Intragenic suppressors unravel the role of the SCREAM ACT-like domain for bHLH partner selectivity in stomatal development” (Proceedings of the National Academy of Sciences of the …, 2022).

Broadly, the Kd is the free concentration of one partner at which half of the binding sites on the other are occupied at equilibrium, for simple one-to-one binding. The term koff denotes the rate constant with which the complex falls apart. Usually kon stands for the second-order rate constant of association.

Assay [1] concerns the target T1, SCRMΔC (1-404), GST removed (Arabidopsis thaliana, UniProt Q9LSE2 1-404).
T1 construct: SCREAM (SCRM, ICE1), Arabidopsis thaliana, At3G26744, residues 1-404 (lacks the C-terminal ACTL domain); Used for ITC; the methods tell thrombin cleavage of the GST-fused proteins in general, not for ITC by name; also called SCRM1ΔC; source: E. coli BL21, purified (glutathione resin, thrombin, Superdex-200); not shown: GST, N-terminal, cleaved
T1 sequence (looked up): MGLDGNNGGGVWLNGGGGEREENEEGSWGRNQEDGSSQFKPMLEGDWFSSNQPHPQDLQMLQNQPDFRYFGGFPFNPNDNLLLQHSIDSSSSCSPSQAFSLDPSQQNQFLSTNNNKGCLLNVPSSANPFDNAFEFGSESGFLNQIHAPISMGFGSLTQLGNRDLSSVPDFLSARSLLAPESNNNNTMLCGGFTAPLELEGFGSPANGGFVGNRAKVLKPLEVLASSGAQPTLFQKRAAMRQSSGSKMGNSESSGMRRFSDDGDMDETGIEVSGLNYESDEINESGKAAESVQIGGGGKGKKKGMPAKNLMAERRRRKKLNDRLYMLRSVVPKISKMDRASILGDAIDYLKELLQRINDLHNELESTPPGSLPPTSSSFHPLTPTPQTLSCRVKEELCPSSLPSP
Description: ITC; Malvern PEAQ-ITC; 40 µM SCRM/SCRMΔC injected into 4 µM SPCH/MUTE/FAMA; PBS, pH 7.2 (Table S1; methods: pH 7.4); 25 °C; single binding site model; means of two experiments. Particulars: both partners purified. A general note: In ITC the heat of successive injections is recorded.

Assay [2] addresses T2, GST-fused SCRM (1-494) (Arabidopsis thaliana, UniProt Q9LSE2 1-494).
T2 construct: SCREAM (SCRM, also known as ICE1), Arabidopsis thaliana, At3G26744, residues 1-494; pGEX-4T-1 with thrombin site; GST kept because the protein was loaded on anti-GST probes for BLI; also called SCREAM; ICE1; source: E. coli BL21, purified (glutathione agarose resin); not shown: GST, N-terminal, kept
T2 sequence (looked up): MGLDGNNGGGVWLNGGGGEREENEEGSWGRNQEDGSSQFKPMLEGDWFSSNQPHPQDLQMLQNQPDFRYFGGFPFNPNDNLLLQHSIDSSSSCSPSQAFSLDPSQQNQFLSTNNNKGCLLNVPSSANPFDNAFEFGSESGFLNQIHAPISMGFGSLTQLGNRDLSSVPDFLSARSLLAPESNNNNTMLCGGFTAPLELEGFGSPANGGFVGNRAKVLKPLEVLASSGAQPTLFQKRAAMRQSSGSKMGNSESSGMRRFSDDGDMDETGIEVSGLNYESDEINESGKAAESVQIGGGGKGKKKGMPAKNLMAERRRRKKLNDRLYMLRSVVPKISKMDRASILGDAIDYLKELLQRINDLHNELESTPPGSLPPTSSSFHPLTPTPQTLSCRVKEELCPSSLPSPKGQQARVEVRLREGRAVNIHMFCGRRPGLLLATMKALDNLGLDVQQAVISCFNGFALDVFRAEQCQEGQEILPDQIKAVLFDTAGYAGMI
Description: BLI; as a1, samples incubated 30 min with a 1:4 molar ratio of the synthetic E-box repeat fragment; analyte 200-3.125 nM or 1000-25 nM. Particulars: both partners purified. (In general: Biolayer interferometry detects binding as a change in optical thickness at a sensor tip.)

In assay [3] the target is T3, GST-fused SCRMΔC (1-404) (Arabidopsis thaliana, UniProt Q9LSE2 1-404).
T3 construct: SCREAM (SCRM, ICE1), Arabidopsis thaliana, At3G26744, residues 1-404 (lacks the C-terminal ACTL domain); pGEX-4T-1; GST kept because the protein was loaded on anti-GST probes for BLI; also called SCRM1ΔC; source: E. coli BL21, purified (glutathione agarose resin); not shown: GST, N-terminal, kept
T3 sequence (looked up): T1 sequence (looked up)
Described as above. Particulars: both partners purified.

Assay [4] addresses T2, GST-fused SCRM (1-494). In words: BLI; as a1, samples incubated 30 min with a 1:4 molar ratio of the TMM promoter fragment containing the E-box; analyte 200-3.125 nM or 1000-25 nM. Particulars: both partners purified.
Assay [5] has as its target T3, GST-fused SCRMΔC (1-404). The description is as above. The note with it: both partners purified.
Assay [6] has as its target T2, GST-fused SCRM (1-494). Description: BLI; Octet Red96; anti-GST probes loaded with 500 nM GST-SCRM or GST-SCRMΔC; SPCH/MUTE/FAMA as analyte at 200-3.12 nM; 30 °C; 1x PBS, 0.02% Tween 20; no DNA; 1:1 model for kon, koff and KD, steady-state analysis for KD (SS). Particulars: both partners purified.
The target in assay [7] is T3, GST-fused SCRMΔC (1-404). The description is as above. Particulars: both partners purified.
Assay [8] concerns the target T2, GST-fused SCRM (1-494). In words: BLI; as a1, samples incubated 30 min with a 1:4 molar ratio of the TMM promoter fragment containing a mutant E-box (control); analyte 200-3.125 nM or 1000-25 nM. Particulars: both partners purified.
Assay [9] addresses T3, GST-fused SCRMΔC (1-404). The description is as above. The note with it: both partners purified.
Assay [10] has as its target GST-fused SCRMΔC (1-404) (Arabidopsis thaliana) (UniProt Q9LSE2). In words: BLI; as a1, samples incubated 30 min with a 1:4 molar ratio of the TMM promoter fragment containing the E-box; analyte 200-3.125 nM or 1000-25 nM.
Assay [11] shares this target. Description: BLI; as a1, samples incubated 30 min with a 1:4 molar ratio of the synthetic E-box repeat fragment; analyte 200-3.125 nM or 1000-25 nM.

B1: SPCH (ΔNSPCH, 98-364) (domain or fragment, Arabidopsis thaliana, UniProt Q700C7 98-364, looked up)
chain: GQQKMSHVTVERNRRKQMNEHLTVLRSLMPCFYVKRGDQASIIGGVVEYISELQQVLQSLEAKKQRKTYAEVLSPRVVPSPRPSPPVLSPRKPPLSPRINHHQIHHHLLLPPISPRTPQPTSPYRAIPPQLPLIPQPPLRSYSSLASCSSLGDPPPYSPASSSSSPSVSSNHESSVINELVANSKSALADVEVKFSGANVLLKTVSHKIPGQVMKIIAALEDLALEILQVNINTVDETMLNSFTIKIGIECQLSAEELAQQIQQTFC
notes: the only recombinant SPCH with bHLH domain that the methods list is ΔNSPCH (98-364); source: E. coli BL21, purified (glutathione resin, thrombin, Superdex-200); not shown: GST, N-terminal, cleaved
B1: the Kd was 61.1 ± 4.2 nM in assay [1]; 7.2 ± 0.4 nM in assay [2]; 38.1 ± 1.9 nM in assay [3]; 3.9 ± 0.3 nM in assay [4]; 49 ± 1.3 nM in [5]; 5.8 ± 0.5 nM in assay [6]. Moreover, the Kd in assay [7] was determined as 59.1 ± 1.3 nM; in assay [8], 6.8 ± 0.5 nM; in [9] it was 78.2 ± 1.2 nM. Further, the koff came to 0.000354 s⁻¹ in assay [2]; 0.000184 s⁻¹ in assay [3]; 0.000153 s⁻¹ in [4]; 0.000208 s⁻¹ in [5]; 0.000111 s⁻¹ in assay [6]; 0.00012 s⁻¹ in [7]. Besides, the koff in assay [8] turned out to be 0.000144 s⁻¹; in assay [9] it was 0.000183 s⁻¹. Further, the kon came out at 49200 M⁻¹ s⁻¹ in [2]; 4850 M⁻¹ s⁻¹ in [3]; 39200 M⁻¹ s⁻¹ in [4]; 4250 M⁻¹ s⁻¹ in assay [5]; 19200 M⁻¹ s⁻¹ in [6]; 2050 M⁻¹ s⁻¹ in assay [7]. The on-rate (kon) in [8] amounted to 21200 M⁻¹ s⁻¹; in assay [9] it was 2350 M⁻¹ s⁻¹.

B2: FAMA (ΔNFAMA) (domain or fragment)
chain: ESQRMTHIAVERNRRKQMNEHLRVLRSLMPGSYVQRGDQASIIGGAIEFVRELEQLLQCLESQKRRRILGETGRDMTTTTTSSSSPITTVANQAQPLIITGNVTELEGGGGLREETAENKSCLADVEVKLLGFDAMIKILSRRRPGQLIKTIAALEDLHLSILHTNITTMEQTVLYSFNVKITSETRFTAEDIASSIQQIFSFIHANTNISGSSNLGNIVFT
modifications: Limits not printed. Start set by analogy with the printed ΔNSPCH 98-364 (one residue before the annotated bHLH). Runs to the native C-terminus. Tag or fusion carrier omitted.
In the case of B2, the Kd in assay [1] is 68.1 ± 5.2 nM; in assay [2] it was 8.5 ± 0.7 nM; in [3], 59.1 ± 1.3 nM; in assay [4], 9.2 ± 0.3 nM; in [5], 68.3 ± 1.4 nM; in assay [6], 7.2 ± 0.5 nM. The Kd in assay [7] amounted to 55.1 ± 1.3 nM; in [8], 15.5 ± 0.6 nM; in assay [9], 85 ± 1.8 nM. Moreover, the koff was found to be 0.000367 s⁻¹ in assay [2]; 0.00023 s⁻¹ in assay [3]; 0.000395 s⁻¹ in [4]; 0.000263 s⁻¹ in [5]; 0.000159 s⁻¹ in assay [6]; 0.00016 s⁻¹ in [7]. Also, the koff was determined as 0.000282 s⁻¹ in [8] and 0.000221 s⁻¹ in assay [9]. The kon stood at 43200 M⁻¹ s⁻¹ in assay [2]; 3910 M⁻¹ s⁻¹ in assay [3]; 43200 M⁻¹ s⁻¹ in [4]; 3910 M⁻¹ s⁻¹ in [5]; 22200 M⁻¹ s⁻¹ in assay [6]; 2910 M⁻¹ s⁻¹ in assay [7]. Also, the kon was found to be 18200 M⁻¹ s⁻¹ in assay [8] and 2610 M⁻¹ s⁻¹ in assay [9].

B3: MUTE (1-202) (natural protein, Arabidopsis thaliana, UniProt Q9M8K6 1-202, looked up)
chain: MSHIAVERNRRRQMNEHLKSLRSLTPCFYIKRGDQASIIGGVIEFIKELQQLVQVLESKKRRKTLNRPSFPYDHQTIEPSSLGAATTRVPFSRIENVMTTSTFKEVGACCNSPHANVEAKISGSNVVLRVVSRRIVGQLVKIISVLEKLSFQVLHLNISSMEETVLYFFVVKIGLECHLSLEELTLEVQKSFVSDEVIVSTN
notes: MUTE, Arabidopsis thaliana, residues 1-202; MUTE (1-202) was made both as a GST fusion (pGEX-4T-1, thrombin-cleavable) and with an N-terminal His tag (pET28a); also called MUTE-HIS; MUTE-histag; source: E. coli BL21, purified (Ni-NTA or glutathione resin, Superdex-200)
Take B3: the Kd in [2] was determined as 5.1 ± 0.3 nM; in [10], 565 nM; in assay [4], 7.3 ± 0.2 nM; in assay [6], 6.1 ± 0.5 nM; in assay [8], 11.1 ± 0.8 nM; in [11], 545 nM. Besides, the koff in [2] amounted to 0.000285 s⁻¹; in assay [10] it was 0.0016 s⁻¹; in assay [4], 0.000286 s⁻¹; in [6], 0.000147 s⁻¹; in [8] it was 0.00023 s⁻¹; in assay [11], 0.0017 s⁻¹. For the same molecule, the kon in [2] was determined as 56200 M⁻¹ s⁻¹; in assay [10], 2850 M⁻¹ s⁻¹; in assay [4], 39200 M⁻¹ s⁻¹; in [6] it was 24200 M⁻¹ s⁻¹; in assay [8] it was 20800 M⁻¹ s⁻¹; in assay [11], 3100 M⁻¹ s⁻¹.
